The results in this text go back to PMC13286378, “The SPN-4 Rbfox RNA-binding protein selects maternal mRNAs for CCR4-NOT-dependent clearance in early Caenorhabditis elegans embryos”.

B1: lin-41(995-1054) (ssRNA)
RNA: GUGCCCUAGCGCUAAAUAUUGUUUUAUUUUAAUGCAUGCUUCCUGCACGCCCCUCCCCCU
B2: lin-41(1023-1047) (ssRNA)
RNA: UUAAUGCAUGCUUCCUGCACGCCCC
B3: lin-41(1023-1047) motif 1 (ssRNA)
RNA: UUAAUGCAUGCUUCCUACAAACCCC
B4: lin-41(1023-1047) motif 2 (ssRNA)
RNA: UUAAUACAAACUUCCUGCACGCCCC
B5: chs-1(40-79) (ssRNA)
RNA: AUUAGUAUUAUUAUUAUUGCAUGCUCUUACCUCAUCUCUC
B6: chs-1(40-79) Rbfox mutant control (ssRNA)
RNA: AUUAGUAUUAUUAUUAUUACAAACUCUUACCUCAUCUCUC

The term Kd denotes the constant that tells how readily two partners part at equilibrium.

The first series deals with T1, SPN-4 RRM (3xFLAG::SPN-4 RRM::6xHis) (Caenorhabditis elegans, UniProt G5EF02 1-200).
T1 sequence: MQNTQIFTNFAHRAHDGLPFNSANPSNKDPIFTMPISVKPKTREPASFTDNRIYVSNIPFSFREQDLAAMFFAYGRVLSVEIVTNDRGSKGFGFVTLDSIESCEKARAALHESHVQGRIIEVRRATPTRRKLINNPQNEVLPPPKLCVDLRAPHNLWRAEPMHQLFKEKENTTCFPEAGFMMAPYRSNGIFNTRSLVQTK
The experiment in a line: EMSA; 10 mM Tris-HCl pH 7.5, 150 mM NaCl, 0.001% NP-40, 10% glycerol, 0.01 mg/ml tRNA, 0.025% Tween-20; 32 nM RNA, 50 nM-2.9 uM protein; 15 min, room temperature; 8%. The note with it: protein: recombinant; tags: N-terminal 3xFLAG (MBP removed by TEV), C-terminal 6xHis; label: 5' Cy5.
Take B1: the Kd was 308 ± 17.9 nM.

B2: the Kd is 285 ± 29.4 nM.

Turning to B3, the Kd is 230 ± 8.1 nM.

Turning to B4, the Kd came out at 1640 ± 146 nM.

For the molecule B5, the Kd stood at 174 ± 13.5 nM.

The target of a further series is T1, SPN-4 RRM (3xFLAG::SPN-4 RRM::6xHis). The experiment in a line: EMSA; did not bind specifically; 10 mM Tris-HCl pH 7.5, 150 mM NaCl, 0.001% NP-40, 10% glycerol, 0.01 mg/ml tRNA, 0.025% Tween-20; 32 nM RNA, 50 nM-2.9 uM protein; 15 min, room temperature; 8%. The note with it: protein: recombinant; tags: N-terminal 3xFLAG (MBP removed by TEV), C-terminal 6xHis; label: 5' Cy5. Background: A gel shift assay detects complexes by their altered migration in electrophoresis.
Consider B6, for which the binding result was “no binding”.
